Source: patent US20220073599A1 (Hoffmann-La Roche, published 2022)

Key:
Mouse ANG2 = target: T1, Mouse ANG2 (mouse, UniProt O35608 275-496, limits assumed); experiment: SPR crossreactivity set-up, Fab captured by anti-Fab antibody, Ang2-RBD injected, 25 C
T1 construct: domain: RBD; also called mouse Ang2-RBD
T1 sequence (looked up): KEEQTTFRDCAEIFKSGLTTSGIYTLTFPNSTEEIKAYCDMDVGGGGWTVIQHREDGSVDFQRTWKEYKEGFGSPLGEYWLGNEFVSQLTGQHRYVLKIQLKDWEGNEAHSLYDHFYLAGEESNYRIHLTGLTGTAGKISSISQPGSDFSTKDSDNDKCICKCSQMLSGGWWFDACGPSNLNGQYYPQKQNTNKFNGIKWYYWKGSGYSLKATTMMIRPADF
Description: (§1) An anti-Fab capturing antibody (GE Healthcare 28958325) was immobilized to a Series S Sensor Chip C1 (GE Healthcare BR100535) using standard amine coupling chemistry resulting in a surface density of approximately 800 resonance units (RU). As running and dilution buffer, HBS-P+ (10 mM HEPES, 150 mM NaCl pH 7.4, 0.05% Surfactant P20) was used, the temperature of measurement was 25° C. The tested antibody was captured by injecting a 50 nM solution for 60 sec at a flow of 5 μl/min. Association was measured by injection of Ang2-RBD from the indicated species in various concentrations in solution for 180 sec at a flow of 30 μl/min (0.07 nM-50 nM, 1:3 dilution). The dissociation phase was monitored for up to 600 sec and triggered by switching from the sample solution to running buffer at a flow rate of 30 μl/min. The surface was regenerated by injection of 10 mM Glycine pH 2.1 for 60 s at a flow rate of 30 μl/min. Bulk refractive index differences were corrected by subtracting blank injections and by subtracting the response obtained from the reference flow cell without captured antibody. Curve fitting was performed using the 1:1 Langmuir binding model within the Biacore® evaluation software.
(§2) Crossreactivity to VEGF-A and ANG2 from other species was assessed as described above in “Materials & general methods” section.

Rabbit ANG2 = target: T2, Rabbit ANG2 (rabbit, UniProt G1T9B3 281-496); experiment: as above
T2 construct: domain: RBD; also called rabbit Ang2-RBD
T2 sequence: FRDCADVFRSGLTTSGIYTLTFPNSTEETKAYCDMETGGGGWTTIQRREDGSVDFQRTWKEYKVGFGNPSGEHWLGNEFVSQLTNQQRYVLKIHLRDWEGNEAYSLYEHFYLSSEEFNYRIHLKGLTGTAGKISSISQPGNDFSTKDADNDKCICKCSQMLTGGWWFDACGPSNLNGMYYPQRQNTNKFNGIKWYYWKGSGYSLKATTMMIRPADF
Description: as §1, §2

Pig ANG2 = target: T3, Pig ANG2 (pig, UniProt Q9BDY7 275-496, limits assumed); experiment: as above
T3 construct: domain: RBD; also called pig Ang2-RBD
T3 sequence (looked up): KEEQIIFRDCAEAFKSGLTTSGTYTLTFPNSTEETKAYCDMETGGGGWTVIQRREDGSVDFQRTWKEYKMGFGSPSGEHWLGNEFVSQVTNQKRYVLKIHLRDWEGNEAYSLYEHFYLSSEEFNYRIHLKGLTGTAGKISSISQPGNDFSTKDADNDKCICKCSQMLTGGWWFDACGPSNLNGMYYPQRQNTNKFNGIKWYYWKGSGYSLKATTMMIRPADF
Description: as §1, §2

Cyno ANG2 = target: T4, Cyno ANG2 (cyno, UniProt A0A2K5VNX6 281-496); experiment: as above
T4 construct: domain: RBD; also called cyno Ang2-RBD
T4 sequence: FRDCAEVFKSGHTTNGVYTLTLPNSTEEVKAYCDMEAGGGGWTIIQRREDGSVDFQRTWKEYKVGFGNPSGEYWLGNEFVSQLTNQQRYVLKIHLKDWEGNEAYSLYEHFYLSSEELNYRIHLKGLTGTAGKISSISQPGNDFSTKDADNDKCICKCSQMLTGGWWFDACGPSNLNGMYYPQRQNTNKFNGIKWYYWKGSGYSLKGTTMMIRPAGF
Description: as §1, §2

human Ang2-RBD = target: T5, human Ang2-RBD (human, UniProt O15123 275-496, limits assumed); experiment: as above
T5 construct: also called Human ANG2 (SPR); Angiopoietin 2-RBD
T5 sequence: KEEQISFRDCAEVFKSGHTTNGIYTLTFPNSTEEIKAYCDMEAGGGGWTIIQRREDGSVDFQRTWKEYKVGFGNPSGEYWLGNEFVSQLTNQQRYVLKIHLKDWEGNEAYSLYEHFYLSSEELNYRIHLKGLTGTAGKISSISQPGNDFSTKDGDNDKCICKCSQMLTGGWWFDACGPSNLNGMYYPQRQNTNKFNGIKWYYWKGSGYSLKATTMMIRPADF
Description: as §1, §2

Mouse VEGF-A-121 = target: T6, Mouse VEGF-A-121 (mouse, UniProt Q00731-3 27-146); experiment: SPR crossreactivity set-up, VEGF-A121-His captured by anti-His antibody, Fab injected, single cycle kinetics
T6 construct: also called mouse VEGF-A121-His; not shown: His tag
T6 sequence (looked up): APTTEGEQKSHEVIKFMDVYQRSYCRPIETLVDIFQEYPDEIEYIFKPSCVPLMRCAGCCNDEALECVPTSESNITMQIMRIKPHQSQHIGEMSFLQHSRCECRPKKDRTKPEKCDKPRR
Description: An anti-His capturing antibody (GE Healthcare 28995056) was immobilized to a Series S Sensor Chip C1 (GE Healthcare BR100535) using standard amine coupling chemistry resulting in a surface density of approximately 600 resonance units (RU). As running and dilution buffer, HBS-P+ (10 mM HEPES, 150 mM NaCl pH 7.4, 0.05% Surfactant P20) was used. […] A dilution series of the tested antibody (3.7-300 nM, 1:3 dilution) was successively injected for 60 s each, dissociation was monitored for 3600 s at a flow rate of 30 μl/min (single cycle kinetics). The surface was regenerated by injecting 10 mM Glycine pH 1.5 for 60 s at a flow of 5 μl/min. […] Curve fitting was performed using the 1:1 Langmuir binding model within the Biacore® evaluation software.
as §2

B1: bispecific anti-VEGF-A/anti-ANG2 Fab fragment P1AD9820 (Fab, V domains shown)
VH: SEHLVESGGGLVKPGGSLRLSCATADFFEYDDMSWVRQAPGKGLEWVGSISPKGDHKYLNTKFIGRFTISRDDSKNTLYLQMNSLRAEDTAVYYCARDVGFFDWWGQGTLVTVSS
VL: AIYMHQEPSSLSASVGDRVTITCHGSYWLNSEVAWYQQKPGKAPKLLIFDGDFKVYEVPSRFSGSGSHEDYTLTISSLQPEDFATYYCQQYRYHPYTFGHGTKVEIKR
notes: Bispecific Fab with two paratopes in one VH/VL pair; also called P1AD9820 Fab
Kd (Mouse ANG2): 92 pM
koff (Mouse ANG2): 0.000743 s⁻¹
kon (Mouse ANG2): 8.11e+06 M⁻¹ s⁻¹
t1/2 (Mouse ANG2): 0.267 h
Kd (Rabbit ANG2): 5 pM
koff (Rabbit ANG2): 5.33e-05 s⁻¹
kon (Rabbit ANG2): 9.91e+06 M⁻¹ s⁻¹
t1/2 (Rabbit ANG2): 3.62 h
Kd (Pig ANG2): 13 pM
koff (Pig ANG2): 0.000105 s⁻¹
kon (Pig ANG2): 7.82e+06 M⁻¹ s⁻¹
t1/2 (Pig ANG2): 1.83 h
Kd (Cyno ANG2): 2 pM
koff (Cyno ANG2): 1.56e-05 s⁻¹
kon (Cyno ANG2): 9.98e+06 M⁻¹ s⁻¹
t1/2 (Cyno ANG2): 12.3 h
Kd (human Ang2-RBD): 3 pM
koff (human Ang2-RBD): 2.64e-05 s⁻¹
kon (human Ang2-RBD): 1.02e+07 M⁻¹ s⁻¹
t1/2 (human Ang2-RBD): 7.28 h
Kd (Mouse VEGF-A-121): 368 pM
koff (Mouse VEGF-A-121): 0.000183 s⁻¹
kon (Mouse VEGF-A-121): 497000 M⁻¹ s⁻¹
t1/2 (Mouse VEGF-A-121): 1.05 h
